± gives the uncertainty stated by the source.

The nature of this data set: amyloid nucleation score (Sup35N fusion, yeast selection) (log enrichment); library NNK3; higher = more nucleation; inactive = no reads after selection. In outline:
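Nucleation score is defined as the DiMSum log enrichment of output over input reads, with centring on the mode score of non-aggregating sequences. A minimum of 100 input reads was required for each sequence. Reads came from Illumina sequencing of plasmid inserts from psi-negative yeast expressing Sup35N fused to peptides of 20 random codons, induced with 100 μM copper sulfate for 24 hours and grown 7 days at 30°C on medium lacking adenine and uracil.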
For the substance KGSFFLDCFGARRRIGLVKF, the amyloid nucleation score result is “inactive”.

On to SIRVSVMFNIRKKVFDLQRF, for which the amyloid nucleation score result is “inactive”.

The substance NYFQFCCGLETVNNYYRKCE returned an amyloid nucleation score of 1.76 ± 0.066.

In the case of RINWTMMCKTFLRFINKS, the amyloid nucleation score result was “inactive”.

For the substance PTGSFMLLET, the amyloid nucleation score result was “inactive”.

As to MSGVDYLTRLFVYTNESDAV, the amyloid nucleation score result is “inactive”.

Regarding GMFARHVFMIIEPHRIIVFH, the amyloid nucleation score result was “inactive”.

Turning to SDITSHLRHSNASNGSWNWL, the amyloid nucleation score result was “inactive”.

As to LIGDNRTGEVALYRFGSRMG, the amyloid nucleation score entry is “inactive”.

In turn, NINYTYLESVLIMGYMFREL returned an amyloid nucleation score of 2.21 ± 0.095.

With CVADHLSCISTRGNCCYMSG, the amyloid nucleation score is 0.473 ± 0.26.

Regarding RGYSANWNLMVAVTCGTIH, the amyloid nucleation score was -0.422 ± 0.71.

Consider YFPSSCCNDFVFSSLEFQSM, for which the amyloid nucleation score is 2.12 ± 0.055.

HFNEEGAQ yielded an amyloid nucleation score of -0.309 ± 1.1.

As to IWIMLHSCELWYADKADLDG, the amyloid nucleation score entry is “inactive”.

Take TPNARSNPSNRPVSSTRARS: the amyloid nucleation score result is “inactive”.

In the case of LIYRHLGYCYNRGCWLVSWH, the amyloid nucleation score entry was “inactive”.

As to YQVSI, the amyloid nucleation score entry is “inactive”.

Consider RILERVATQWRYGRCPMCDR, for which the amyloid nucleation score entry is “inactive”.

Take EVFSDVY: the amyloid nucleation score entry was “inactive”.

On to PMYPGIVGSRAIMQRLVGCC, for which the amyloid nucleation score entry is “inactive”.

In the case of DLRALPKVFLMLDKYSIMSG, the amyloid nucleation score result is “inactive”.

Turning to ITCLNMTWSTAGQWLCVSFT, the amyloid nucleation score was 1.05 ± 0.17.

Turning to IYNRNGRF, the amyloid nucleation score entry is “inactive”.

Turning to QTGLVMWQLTFTYPLHVWNM, the amyloid nucleation score entry was “inactive”.

On to CDMSCMTKSCPPSYPN, for which the amyloid nucleation score is -0.395 ± 0.8.

In the case of LSDCRSWVPCGRHCSF, the amyloid nucleation score result was “inactive”.

On to IYCTFAAFSHCQQWKNLFWR, for which the amyloid nucleation score was -0.456 ± 1.1.

Consider PVFQLNNFTYMRVPCLRGLN, for which the amyloid nucleation score result is “inactive”.

In the case of FLLGPSLTPNSMG, the amyloid nucleation score entry was “inactive”.

Consider CTGYDCVGMGADFCARMWHC, for which the amyloid nucleation score entry was “inactive”.

On to RILHFTICPNQWTRYKVDS, for which the amyloid nucleation score entry was “inactive”.

As to SVYQDCTGGNIPQFGSLAD, the amyloid nucleation score result is “inactive”.

As for IVSLSLVMSTDLC, the amyloid nucleation score was 0.834 ± 0.24.

Consider ILRFFVCLSHKNVDFICSAR, for which the amyloid nucleation score result was “inactive”.

As to LNLSLVNCLMAVTCSLFL, the amyloid nucleation score is 1.44 ± 0.13.

Regarding EFWQFDRYVLSNTVSLFSGC, the amyloid nucleation score entry was “inactive”.

Regarding GPNDLSMAFRTLYDQAVPYV, the amyloid nucleation score was -0.521 ± 1.

As for NLWLECNLESSQRSSLFTKL, the amyloid nucleation score result is “inactive”.

As for QLHRENEVVRYVF, the amyloid nucleation score entry is “inactive”.

With NSFLRVIVC, the amyloid nucleation score entry was “inactive”.

Take SSLWSNK: the amyloid nucleation score entry was “inactive”.

As for YNLGRNS, the amyloid nucleation score entry is “inactive”.

For VYFGSWTWSVNSKHLPPALV, the amyloid nucleation score entry is “inactive”.

As to LEYDRTFKILFCGGSGWHYS, the amyloid nucleation score entry was “inactive”.

For LHAMPLEGFLHLCPKLTCHQ, the amyloid nucleation score is 0.676 ± 0.18.

In the case of FLLMLFVSGVRLFDYRRFWH, the amyloid nucleation score entry is “inactive”.

With ETLWVKVYLTYLNMTRMSGY, the amyloid nucleation score result was “inactive”.

On to MWVFKMRTGQYRASSRSLHR, for which the amyloid nucleation score came to 0.175 ± 0.37.

As to GCRYQGHCHVYYLAERIACD, the amyloid nucleation score entry was “inactive”.

On to DENVALFFLF, for which the amyloid nucleation score entry is “inactive”.

PTSFLVYRMKRWFRASMSSR: the amyloid nucleation score entry was “inactive”.

As for YIEAMNAGLPGEPARYFVVS, the amyloid nucleation score result was “inactive”.

Take SIPVSCGPLKKDVVREIRVK: the amyloid nucleation score entry is “inactive”.

ALALMFVEGCVIYMGIGC returned an amyloid nucleation score of 1.93 ± 0.076.

With ELGGFFNEAGVTNHPIMS, the amyloid nucleation score entry was “inactive”.

In the case of SVYGSVFKNRG, the amyloid nucleation score result was “inactive”.

As to SNLLCEALETRLYPRLKHVR, the amyloid nucleation score entry is “inactive”.

For the substance CLFSHYLV, the amyloid nucleation score result is “inactive”.

Consider VEMGVLSGFK, for which the amyloid nucleation score was -0.288 ± 0.75.

Take SAWVIIIMLARYVAIS: the amyloid nucleation score entry was “inactive”.

Consider EHNNQLGIWSTYPCSNLSGH, for which the amyloid nucleation score result is “inactive”.

Substance KALVGKYFKMCRTCDRYFYC gave an amyloid nucleation score of -0.416 ± 0.98.

Regarding GTEYLV, the amyloid nucleation score entry was “inactive”.

On to YFTSEPLSAPSQWGRVKGSA, for which the amyloid nucleation score result is “inactive”.

Turning to FDMVFVLENRLYRSMANLSF, the amyloid nucleation score result was “inactive”.

For the substance HFGYSGFDYYICTRY, the amyloid nucleation score turned out to be 0.049 ± 0.27.

Regarding MYQMSTVKRRRVGGSNDMCV, the amyloid nucleation score result was “inactive”.

As to RDWKEDLFFF, the amyloid nucleation score result was “inactive”.

Regarding ILTISNTAKKSDW, the amyloid nucleation score result was “inactive”.

As for YYYYDRCMRPVHSGKGVKLW, the amyloid nucleation score entry was “inactive”.

For CRSQMHWLYSQRQIMPVLRS, the amyloid nucleation score entry was “inactive”.

In the case of YLMSYGRWDRWKWWYFYRLW, the amyloid nucleation score result was “inactive”.

Take SLHYEHLAGMTCRLVLEYLI: the amyloid nucleation score result is “inactive”.

Regarding TGLVMNKLHLMCDMYGIISL, the amyloid nucleation score entry was “inactive”.

With IALTTRVN, the amyloid nucleation score entry is “inactive”.

With FVLFAYWHARPNTISRGCDH, the amyloid nucleation score result was “inactive”.

With YEPTSAK, the amyloid nucleation score result was “inactive”.

In the case of VIITNEMVDRVDGDTTSYMH, the amyloid nucleation score was -0.003 ± 1.

LFSICINICLY displayed an amyloid nucleation score of 1.79 ± 0.092.

Consider VWCYFVQYHGIISLSFIAFR, for which the amyloid nucleation score entry is “inactive”.

Take REASCGIDRMIRRCTERLSC: the amyloid nucleation score entry was “inactive”.

With PILMISCAAGKELQLKVLWN, the amyloid nucleation score entry was “inactive”.

Turning to SHFAEQGLSCSLSYSFSTIL, the amyloid nucleation score entry was “inactive”.

Turning to RIGAPKRRSRTWKNPAWTGQ, the amyloid nucleation score entry is “inactive”.

As to GWVLILKMGYFRSLWNITVL, the amyloid nucleation score result was “inactive”.

As to ELRELFQNCL, the amyloid nucleation score result is “inactive”.

For the substance CPESLWNKSYVYAGALTFLR, the amyloid nucleation score result is “inactive”.

With WVRAA, the amyloid nucleation score entry is “inactive”.

With QDLMRTEHFNYS, the amyloid nucleation score entry is “inactive”.

In turn, SCFQQGNFWCSVFFNVGGQL yielded an amyloid nucleation score of 2.64 ± 0.059.

As for NTFVDGKSRYYSYLRIVQIL, the amyloid nucleation score entry was “inactive”.

For WFDSAPSPLDLRVHLFNVKV, the amyloid nucleation score entry was “inactive”.

With WWTNLATPAKNQS, the amyloid nucleation score entry is “inactive”.

On to LIICLYSTAGRGIRWSDSTA, for which the amyloid nucleation score result is “inactive”.

As to GKIEDYCLVRESQAIPSLLQ, the amyloid nucleation score entry was “inactive”.

Regarding WYLMCWCCLKVPVAQLM, the amyloid nucleation score came to 0.671 ± 0.19.

Turning to IKGLAPRFAVGLDNLMSESM, the amyloid nucleation score entry was “inactive”.

As to WHTLLDCGVGEFWS, the amyloid nucleation score entry was “inactive”.

Regarding SSWFNGSLTVRQLIQRGRLF, the amyloid nucleation score result is “inactive”.

For the substance SRHFTIEVSQFCIISQGVNL, the amyloid nucleation score result was “inactive”.

For VLRVDRGGTIMRYPCLG, the amyloid nucleation score entry is “inactive”.

The substance CANAYWDVCCCYVFLMGLGG came in with an amyloid nucleation score of -0.268 ± 1.1.

TTRKNLKSGLVVSL: the amyloid nucleation score result is “inactive”.

VCQGFSKFLRWSQVRFLSMA returned an amyloid nucleation score of -0.288 ± 1.4.

Turning to LLVFSTGHARRFFSSYESRG, the amyloid nucleation score was found to be 1.28 ± 0.09.

As for ISHCMVLRNA, the amyloid nucleation score was 2.49 ± 0.086.

Regarding ILTCFFSQEMIWHFLDTYDY, the amyloid nucleation score was 0.522 ± 0.24.

As to NNRVLQRRPHRFHGANVTWS, the amyloid nucleation score was -0.677 ± 1.4.

The substance QLVFYHVDLHILPFWSAI had an amyloid nucleation score of 2.15 ± 0.081.

Regarding KRPHV, the amyloid nucleation score result is “inactive”.

Consider DVMSILLTNVMLSKSALELS, for which the amyloid nucleation score entry is “inactive”.

Turning to LTCSWIICLSMSYLTSRYNR, the amyloid nucleation score turned out to be 1.83 ± 0.1.

With NFCNLLFR, the amyloid nucleation score entry is “inactive”.

As to NNPSHGTRQNTYSALGWDHT, the amyloid nucleation score result was “inactive”.

Regarding GSKAHNDIDRGGSWMGWNIA, the amyloid nucleation score result was “inactive”.

In the case of RSDVI, the amyloid nucleation score result was “inactive”.

With MKGQLARSSDLSRLDVNCMG, the amyloid nucleation score entry is “inactive”.

Take AGKSLLRVQYP: the amyloid nucleation score result was “inactive”.

As for GVGCTKSECRSICMPKHP, the amyloid nucleation score result is “inactive”.

For the substance FRLYFYYYSNLFRHFCYNKS, the amyloid nucleation score entry is “inactive”.

Turning to PLLLHVST, the amyloid nucleation score entry is “inactive”.

As for LTGLEMLYYTCFNVCTRKCV, the amyloid nucleation score entry was “inactive”.

In turn, LDMSLACPRG displayed an amyloid nucleation score of -0.051 ± 0.77.

For the substance HVVVFDYLLSVLCIVDRVEG, the amyloid nucleation score entry is “inactive”.

For the substance NFIIWWVLDISVERIRINEV, the amyloid nucleation score result was “inactive”.

Consider IPNMDAFLERRPREYNWPVA, for which the amyloid nucleation score entry was “inactive”.

As to LRYSVEAFTRDDLTESSQVV, the amyloid nucleation score result was “inactive”.

With TICYGD, the amyloid nucleation score result is “inactive”.

Turning to IGEMNTPMPAMKFVMRWLDH, the amyloid nucleation score is 0.845 ± 0.13.

On to VLILCIKNTCLNQCASSCHR, for which the amyloid nucleation score came out at 2.02 ± 0.068.
